Results taken from paper PMC10197516.

Target: SARS-CoV-2 spike-protein trimers
Test: SEC + other: negative-stain electron microscopy

SARS-CoV-2 spike-protein trimers
stoichiometry N: 3
